Assay results taken from US20180231562A1 (UCB, published 2018).

Assays:
[1] = molecular target: T1, human TNFα in complex with compound (15) (human, UniProt P01375 77-233); test: SPR (BIAcore T200), against apo human TNFα
T1 construct: also called Human TNFα + compound 15; Human TNFα + compound (15)

[2] = molecular target: T2, human TNFα in complex with compound (39) (human, UniProt P01375 77-233); test: SPR (BIAcore T200), against apo human TNFα
T2 construct: also called Human TNFα + compound (39); compound-distorted human TNFα
T2 sequence (P01375 77-233 limits assumed, one chain of several): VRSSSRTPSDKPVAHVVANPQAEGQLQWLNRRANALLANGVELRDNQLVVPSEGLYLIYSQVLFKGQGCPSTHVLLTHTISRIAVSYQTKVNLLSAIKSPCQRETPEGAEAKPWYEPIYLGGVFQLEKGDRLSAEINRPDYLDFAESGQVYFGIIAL

T1 sequence (P01375 77-233 limits assumed, one chain of several): as above

B1: CA185_01979 (antibody, mouse IgG1, kappa, V domains shown)
VH: EVHLVESGPGLVKPSQSLSLTCSVTGYSITNSYWDWIRKFPGNKMEWMGYINYSGSTGYNPSLKSRISISRDTSNNQFFLQLNSITTEDTATYYCARGTYGYNAYHFDYWGRGVMVTVSS
VL: DIQMTQSPASLSASLEEIVTITCQASQDIGNWLSWYQQKPGKSPHLLIYGTTSLADGVPSRFSGSRSGTQYSLKISGLQVADIGIYVCLQAYSTPFTFGSGTKLEIKR
notes: also called CA185_01979.0; CA185_1979
selective binding over apo human TNFα (log) [1]: > 2 log | selective binding over apo human TNFα (log) [2]: > 2 log
